Measured values from IntAct's records for PubMed 22536782.

B1: GRB2-associated-binding protein 1 (Homo sapiens), Q13480 (parent)
chain: MSGGEVVCSGWLRKSPPEKKLKRYAWKRRWFVLRSGRLTGDPDVLEYYKNDHAKKPIRIIDLNLCQQVDAGLTFNKKEFENSYIFDINTIDRIFYLVADSEEEMNKWVRCICDICGFNPTEEDPVKPPGSSLQAPADLPLAINTAPPSTQADSSSATLPPPYQLINVPPHLETLGIQEDPQDYLLLINCQSKKPEPTRTHADSAKSTSSETDCNDNVPSHKNPASSQSKHGMNGFFQQQMIYDSPPSRAPSASVDSSLYNLPRSYSHDVLPKVSPSSTEADGELYVFNTPSGTSSVETQMRHVSISYDIPPTPGNTYQIPRTFPEGTLGQTSKLDTIPDIPPPRPPKPHPAHDRSPVETCSIPRTASDTDSSYCIPTAGMSPSRSNTISTVDLNKLRKDASSQDCYDIPRAFPSDRSSSLEGFHNHFKVKNVLTVGSVSSEELDENYVPMNPNSPPRQHSSSFTEPIQEANYVPMTPGTFDFSSFGMQVPPPAHMGFRSSPKTPPRRPVPVADCEPPPVDRNLKPDRKVKPAPLEIKPLPEWEELQAPVRSPITRSFARDSSRFPMSPRPDSVHSTTSSSDSHDSEENYVPMNPNLSSEDPNLFGSNSLDGGSSPMIKPKGDKQVEYLDLDLDSGKSTPPRKQKSSGSGSSVADERVDYVVVDQQKTLALKSTREAWTDGRQSTESETPAKSVK

Variants of: B1
Details: with grb2_human GRB2, P62993
Sequence of grb2_human GRB2, P62993 (P62993 whole entry, looked up): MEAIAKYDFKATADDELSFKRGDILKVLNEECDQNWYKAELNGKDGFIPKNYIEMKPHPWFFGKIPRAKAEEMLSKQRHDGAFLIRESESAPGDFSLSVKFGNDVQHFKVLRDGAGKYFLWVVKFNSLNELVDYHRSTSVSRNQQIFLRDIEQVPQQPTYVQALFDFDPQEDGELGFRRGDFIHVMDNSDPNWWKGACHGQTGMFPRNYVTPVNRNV

Variant | effect of a mutation on the interaction
R521A | decreasing interaction
K524A | decreasing interaction
N522A | decreasing interaction
L523A | decreasing interaction

Variants of: B1
Details: with grb2_human GRB2, P62993
Remark: another data set of the same source

Variant | effect of a mutation on the interaction
P346A | increasing interaction
R344A | increasing interaction
K347A | increasing interaction
P345A | increasing interaction
